Measurements taken from patent US20170219596A1.

What was measured:
[1] = target: mito-mCherry-4×GCN4pep (yeast); experiment: FRAP of scFv-GCN4-GFP bound to the mitochondrial scaffold in U2OS cells
[2] = target: mito-mCherry-4×GCN4pep with short linker (GGSGG; SEQ ID NO:3) (yeast); experiment: quantitative fluorescence microscopy on mitochondria, normalized to a sfGFP-mCherry fusion; antibodies per 4× array, short linker
dCas9-SunTag10×_v4 = experiment: cell-based or functional assay

half-life of GFP fluorescence recovery (FRAP) [1] [min] | average GFP:mCherry molar ratio [2] | Substance | activation of CDKN1B transcription (mRNA by qPCR, K562 cells) (dCas9-SunTag10×_v4) [%] | activation of CXCR4 expression (CXCR4 protein level by FACS, K562 cells) (dCas9-SunTag10×_v4) [fold]
5 to 10 | 3.4 | scFv-GCN4-sfGFP-GB1 |  | 
 |  | scFv-GCN4-GFP-NLS-VP64 | 330 | 10 to 50
